# According to article PMC6146289, “Combinatorial use of disulfide bridges and native sulfur-SAD phasing for rapid structure determination of coiled-coils” (Bioscience Reports, 2018):
# B1: HsCEP135 82–144 (amino acids 82–144 of human CEP135, centrosomal protein of 135 kDa) (domain or fragment, UniProt Q66GS9 82-144, looked up)
# chain: NNELYLELMKLREHSDQHVKELKTSLKKCARETADLKFLNNQYAHKLKLLEKESKAKNERIQQ
# notes: coiled-coil fragment with one cysteine (Cys110) and one methionine per monomer; Under oxidizing conditions Cys110 forms a homotypic disulfide bridge between the two chains of the parallel coiled-coil dimer; Calculated molecular weight 7.71 kDa
# Target: the molecule itself
# Assay: SEC-MALS; oxidizing conditions: 20 mM Tris-HCl, pH 7.5, 150 mM NaCl, without DTT; S-200 10/30 column; 100 μl at 4 mg/ml injected; 10°C
protein,measurement,value
B1,stoichiometry N,2
